According to article PMC3609778, “Truncated and Helix-Constrained Peptides with High Affinity and Specificity for the cFos Coiled-Coil of AP-1” (PLoS ONE, 2013):
Where a SMILES comes first, the peptide text is derived from it. Bridges are numbered along the chain shown (N, C = ends).

Assay: Circular dichroism helicity of peptide in isolation (homotypic)
Format: physicochemical
Details: CD ratio, peptide in isolation, 20 °C
Method: Circular dichroism (CD) spectroscopy was conducted with an Applied Photophysics Chirascan CD spectroploarimeter (Leatherhead, U.K.) using a 200 µL sample in a CD cell with a 1 mm path length (Hellma, Müllheim Germany). Samples contained 150 µM total peptide concentration suspended in 10 mM potassium phosphate and 100 mM potassium fluoride at pH 7. The CD spectra of the homodimeric and heterodimeric complexes were scanned between 300 nm and 190 nm at 20°C (for both pre- and post-melt samples to check for reversibility of unfolding) and at −8°C to assess helical levels and coiled-coil structure (see Figure 4).
Supplementary file pone.0059415.s005.doc: Table S1 Helical Data obtained via Circular Dichroism. Shown are A) homo and B) heteromeric samples. […] A ratio higher than 1 is generally indicated evidence that a coiled coil has formed, while a ratio of less than 0.9 is taken to indicate the presence of isolated helices. Shown in column two are the calculated fractional helicities taken from the Molar Residue Ellipticity at […]. Fraction helicity (ƒH) can be calculated as ƒH = (θ222−θc)/(θ222∞−θc) where θ222∞ = (−44000+250*T)*(1−k/Nr) and θc = 2220–(53*T). In these equations the wavelength dependent constant k = 2.4 (at 222 nm), Nr = the number of residues, and T = 20 degrees Celsius (293 K). The 222/208 ratio is used to provide evidence on whether the helices are monomeric or are adopting a quaternary structure. Measured helicity for the original JunWCANDI peptide and for the template on which the hydrocarbon constraints have been introduced. […] The N- and C-capping motifs have been removed for the constrained since they are considered to be largely redundant upon their introduction. (DOC) Click here for additional data file.

Row | Molecule | Homotypic Ɵ222/208 (20ºC)
1 | Ac-ASTDTLQAETDQLEDEKYALQTEIANLLKEKEKLGAP-NH2 [cFos] | 0.59

Same assay, conditions: peptide in isolation, from CD molar residue ellipticity at 222 nm, 20°C, 150 µM, pH 7

Row | Molecule | Fraction helical (ƒH), homotypic
2 | Ac-ASTDTLQAETDQLEDEKYALQTEIANLLKEKEKLGAP-NH2 [cFos] | 0.20

Assay: circular dichroism
Details: 10 mM K phosphate, 100 mM KF; pH 7; 20 °C; 150 uM

Row | Molecule | helicity [frac]
3 | CC[C@H](C)[C@H](NC(=O)[C@H](Cc1c[nH]cn1)NC(=O)[C@@H]1CC(=O)NCCCC[C@H](NC(=O)[C@H](C)NC(=O)[C@H](CCCCN)NC(=O)[C@H](CO)NC(=O)[C@H](CCCNC(=N)N)NC(=O)[C@H](CC(C)C)NC(=O)[C@@H]2CC(=O)NCCCC[C@H](NC(=O)[C@H](CCCNC(=N)N)NC(=O)[C@H](CC(C)C)NC(C)=O)C(=O)N[C@@H](CCC(=O)O)C(=O)N[C@@H]([C@@H](C)CC)C(=O)N[C@@H](Cc3ccc(O)cc3)C(=O)N2)C(=O)N[C@@H](CCSC)C(=O)N[C@@H](CC(C)C)C(=O)N[C@@H](CCCNC(=N)N)C(=O)N1)C(=O)N[C@@H](C)C(=O)N[C@@H](CCC(N)=O)C(=O)N[C@@H](CC(C)C)C(N)=O (Ac-LRKEIYDLRSKAKMLRDHIAQL-NH2; lactam 3-7, 13-17) | 0.34
4 | CC[C@H](C)[C@H](NC(=O)[C@H](Cc1c[nH]cn1)NC(=O)[C@@H]1CC(=O)NCCCC[C@H](NC(=O)[C@H](C)NC(=O)[C@H](CCCCN)NC(=O)[C@H](CO)NC(=O)[C@H](CCCNC(=N)N)NC(=O)[C@H](CC(C)C)NC(=O)[C@@H]2CC(=O)NCCCC[C@H](NC(=O)[C@H](CCCCN)NC(=O)[C@H](CC(C)C)NC(C)=O)C(=O)N[C@@H](CCC(=O)O)C(=O)N[C@@H](CC(N)=O)C(=O)N[C@@H](Cc3ccc(O)cc3)C(=O)N2)C(=O)N[C@@H](CCSC)C(=O)N[C@@H](CC(C)C)C(=O)N[C@@H](CCCNC(=N)N)C(=O)N1)C(=O)N[C@@H](C)C(=O)N[C@@H](CCC(N)=O)C(=O)N[C@@H](CC(C)C)C(N)=O (Ac-LKKENYDLRSKAKMLRDHIAQL-NH2; lactam 3-7, 13-17) | 0.33
5 | CC[C@H](C)[C@H](NC(=O)[C@H](Cc1c[nH]cn1)NC(=O)[C@@H]1CC(=O)NCCCC[C@H](NC(=O)[C@H](C)NC(=O)[C@H](CC(C)C)NC(=O)[C@H](CO)NC(=O)[C@H](CCCNC(=N)N)NC(=O)[C@H](CC(C)C)NC(=O)[C@@H]2CC(=O)NCCCC[C@H](NC(=O)[C@H](CCCCN)NC(=O)[C@H](CC(C)C)NC(C)=O)C(=O)N[C@@H](CCC(=O)O)C(=O)N[C@@H]([C@@H](C)CC)C(=O)N[C@@H](Cc3ccc(O)cc3)C(=O)N2)C(=O)N[C@@H](CCSC)C(=O)N[C@@H](CC(C)C)C(=O)N[C@@H](CCCNC(=N)N)C(=O)N1)C(=O)N[C@@H](C)C(=O)N[C@@H](CCC(N)=O)C(=O)N[C@@H](CC(C)C)C(N)=O (Ac-LKKEIYDLRSLAKMLRDHIAQL-NH2; lactam 3-7, 13-17) | 0.34
6 | CC[C@H](C)[C@H](NC(C)=O)C(=O)N[C@H]1CCCCNC(=O)C[C@@H](C(=O)N[C@@H](CCCCN)C(=O)N[C@@H](C)C(=O)N[C@@H](CC(N)=O)C(=O)N[C@@H](CCSC)C(=O)N[C@@H](CC(C)C)C(=O)N[C@@H](CCCNC(=N)N)C(=O)N[C@@H](CCC(=O)O)C(=O)N[C@@H](Cc2c[nH]cn2)C(=O)N[C@H](C(=O)N[C@@H](C)C(=O)N[C@@H](CCC(N)=O)C(=O)N[C@@H](CC(C)C)C(N)=O)[C@@H](C)CC)NC(=O)[C@H](CCCNC(=N)N)NC(=O)[C@H](CC(C)C)NC(=O)[C@H](CCC(=O)O)NC1=O (Ac-IKELRDKANMLREHIAQL-NH2; lactam 2-6) | 0.3
7 | CC[C@H](C)[C@H](NC(=O)[C@H](Cc1c[nH]cn1)NC(=O)[C@@H]1CC(=O)NCCCC[C@H](NC(=O)[C@H](C)NC(=O)[C@H](CCCCN)NC(=O)[C@H](CO)NC(=O)[C@H](CCCNC(=N)N)NC(=O)[C@H](CC(C)C)NC(=O)[C@@H]2CC(=O)NCCCC[C@H](NC(=O)[C@H](CCCCN)NC(=O)[C@H](CC(C)C)NC(C)=O)C(=O)N[C@@H](CCC(=O)O)C(=O)N[C@@H]([C@@H](C)CC)C(=O)N[C@@H](Cc3ccc(O)cc3)C(=O)N2)C(=O)N[C@@H](CCSC)C(=O)N[C@@H](CC(C)C)C(=O)N[C@@H](CCCNC(=N)N)C(=O)N1)C(=O)N[C@@H](C)C(=O)N[C@@H](CCC(N)=O)C(=O)N[C@@H](CC(C)C)C(N)=O (Ac-LKKEIYDLRSKAKMLRDHIAQL-NH2; lactam 3-7, 13-17) | 0.63
8 | CC[C@H](C)[C@@H]1NC(=O)[C@H](CCC(=O)O)NC(=O)[C@@H](NC(=O)[C@H](CCCCN)NC(=O)[C@H](CC(C)C)NC(C)=O)CCCCNC(=O)C[C@@H](C(=O)N[C@@H](CC(C)C)C(=O)N[C@@H](CCCNC(=N)N)C(=O)N[C@H]2CCCCNC(=O)C[C@@H](C(=O)N[C@@H](CC(C)C)C(=O)N[C@@H](CCCNC(=N)N)C(=O)N[C@@H](CCC(=O)O)C(=O)N[C@@H](Cc3c[nH]cn3)C(N)=O)NC(=O)[C@H](CCCCN)NC(=O)[C@H](C)NC(=O)[C@H](CCCCN)NC2=O)NC(=O)[C@H](Cc2ccc(O)cc2)NC1=O (Ac-LKKEIYDLRKKAKDLREH-NH2; lactam 3-7, 10-14) | 0.39
9 | CC[C@H](C)[C@H](NC(C)=O)C(=O)N[C@@H](Cc1ccc(O)cc1)C(=O)N[C@@H](CCC(=O)O)C(=O)N[C@@H](CC(C)C)C(=O)N[C@@H](CCCNC(=N)N)C(=O)N[C@@H](CO)C(=O)N[C@@H](CCCCN)C(=O)N[C@@H](C)C(=O)N[C@H]1CCCCNC(=O)C[C@@H](C(=O)N[C@@H](Cc2c[nH]cn2)C(=O)N[C@H](C(=O)N[C@@H](C)C(=O)N[C@@H](CCC(N)=O)C(=O)N[C@@H](CC(C)C)C(N)=O)[C@@H](C)CC)NC(=O)[C@H](CCCNC(=N)N)NC(=O)[C@H](CC(C)C)NC(=O)[C@H](CCSC)NC1=O (Ac-IYELRSKAKMLRDHIAQL-NH2; lactam 9-13) | 0.34
10 | CC[C@H](C)[C@H](NC(C)=O)C(=O)N[C@H]1CCCCNC(=O)C[C@@H](C(=O)N[C@@H](CCCCN)C(=O)N[C@@H](C)C(=O)N[C@H]2CCCCNC(=O)C[C@@H](C(=O)N[C@@H](Cc3c[nH]cn3)C(=O)N[C@H](C(=O)N[C@@H](C)C(=O)N[C@@H](CCC(N)=O)C(=O)N[C@@H](CC(C)C)C(N)=O)[C@@H](C)CC)NC(=O)[C@H](CCCNC(=N)N)NC(=O)[C@H](CC(C)C)NC(=O)[C@H](CCSC)NC2=O)NC(=O)[C@H](CCCNC(=N)N)NC(=O)[C@H](CC(C)C)NC(=O)[C@H](CCC(=O)O)NC1=O (Ac-IKELRDKAKMLRDHIAQL-NH2; lactam 2-6, 9-13) | 0.35
11 | CC[C@H](C)[C@@H]1NC(=O)[C@H](Cc2c[nH]cn2)NC(=O)[C@@H](NC(=O)[C@H](CCCNC(=N)N)NC(=O)[C@H](CC(C)C)NC(=O)[C@@H]2CC(=O)NCCCC[C@H](NC(=O)[C@H](CCCNC(=N)N)NC(=O)[C@H](CC(C)C)NC(=O)[C@@H]3CC(=O)NCCCC[C@H](NC(=O)[C@H](CCCCN)NC(=O)[C@H](CC(C)C)NC(C)=O)C(=O)N[C@@H](CCC(=O)O)C(=O)N[C@@H]([C@@H](C)CC)C(=O)N[C@@H](Cc4ccc(O)cc4)C(=O)N3)C(=O)N[C@@H](CCCCN)C(=O)N[C@@H](C)C(=O)N[C@@H](CC(N)=O)C(=O)N2)CCCCNC(=O)C[C@@H](C(=O)N[C@@H](CC(C)C)C(N)=O)NC(=O)[C@H](C)NC1=O (Ac-LKKEIYDLRKKANDLRKHIADL-NH2; lactam 3-7, 10-14, 17-21) | 0.43
12 | CC[C@H](C)[C@@H]1NC(=O)[C@H](CCC(=O)O)NC(=O)[C@@H](NC(=O)[C@H](CCCCN)NC(=O)[C@H](CC(C)C)NC(C)=O)CCCCNC(=O)C[C@@H](C(=O)N[C@@H](CC(C)C)C(=O)N[C@@H](CCCNC(=N)N)C(=O)N[C@@H](CCCCN)C(=O)N[C@@H](CCCCN)C(=O)N[C@@H](C)C(=O)N[C@H]2CCCCNC(=O)C[C@@H](C(=O)N[C@@H](Cc3c[nH]cn3)C(N)=O)NC(=O)[C@H](CCCNC(=N)N)NC(=O)[C@H](CC(C)C)NC(=O)[C@H](CCSC)NC2=O)NC(=O)[C@H](Cc2ccc(O)cc2)NC1=O (Ac-LKKEIYDLRKKAKMLRDH-NH2; lactam 3-7, 13-17) | 0.49
13 | CC[C@H](C)[C@@H]1NC(=O)[C@H](Cc2c[nH]cn2)NC(=O)[C@@H](NC(=O)[C@H](CCCNC(=N)N)NC(=O)[C@H](CC(C)C)NC(=O)[C@H](CCSC)NC(=O)[C@H](CC(N)=O)NC(=O)[C@H](C)NC(=O)[C@H](CCCCN)NC(=O)[C@H](CO)NC(=O)[C@H](CCCNC(=N)N)NC(=O)[C@H](CC(C)C)NC(=O)[C@@H]2CC(=O)NCCCC[C@H](NC(=O)[C@H](CCCCN)NC(=O)[C@H](CC(C)C)NC(C)=O)C(=O)N[C@@H](CCC(=O)O)C(=O)N[C@@H]([C@@H](C)CC)C(=O)N[C@@H](Cc3ccc(O)cc3)C(=O)N2)CCCCNC(=O)C[C@@H](C(=O)N[C@@H](CC(C)C)C(N)=O)NC(=O)[C@H](C)NC1=O (Ac-LKKEIYDLRSKANMLRKHIADL-NH2; lactam 3-7, 17-21) | 0.57
14 | CC[C@H](C)[C@H](NC(=O)[C@H](Cc1c[nH]cn1)NC(=O)[C@@H]1CC(=O)NCCCC[C@H](NC(=O)[C@H](Cc2ccccc2)NC(=O)[C@H](CCCCN)NC(=O)[C@H](CO)NC(=O)[C@H](CCCNC(=N)N)NC(=O)[C@H](CC(C)C)NC(=O)[C@@H]2CC(=O)NCCCC[C@H](NC(=O)[C@H](CCCCN)NC(=O)[C@H](CC(C)C)NC(C)=O)C(=O)N[C@@H](CCC(=O)O)C(=O)N[C@@H]([C@@H](C)CC)C(=O)N[C@@H](Cc3ccc(O)cc3)C(=O)N2)C(=O)N[C@@H](CCSC)C(=O)N[C@@H](CC(C)C)C(=O)N[C@@H](CCCNC(=N)N)C(=O)N1)C(=O)N[C@@H](C)C(=O)N[C@@H](CCC(N)=O)C(=O)N[C@@H](CC(C)C)C(N)=O (Ac-LKKEIYDLRSKFKMLRDHIAQL-NH2; lactam 3-7, 13-17) | 0.37
